Reference: the DeepSol protein solubility set

Test: soluble on expression in E. coli; label from the status in PepcDB or PDB records

Row | Sequence | soluble on expression in E. coli
1 | SYELTQPPSVSVAPGKTARITCGGNNIGSKSVHWYQQKPGQAPVLVVYDDSDRPSGIPERFSGSNSGNTATLTISRVEAGDEADYYCQVWDSSSDYVFGTGTKVTVLGQPKANPTVTLFPPSSEEFQANKATLVCLISDFYPGAVTVAWKADGSPVKAGVETTKPSKQSNNKYAASSYLSLTPEQWKSHRSYSCQVTHEGSTVEKTVAPTECS | soluble
2 | SYYHHHHHHHEGVRTMEEECRVLSIQSHVIRGYVGNRAATFPLQVLGFEIDAVNSVQFSNHTGYAHWKGQVLNSDELQELYEGLRLNNMNKYDYVLTGYTRDKSFLAMVVDIVQELKQQNPRLVYVCDPVLGDKWDGEGSMYVPEDLLPVYKEKVVPLADIITPNQFEAELLSGRKIHSQEEALRVMDMLHSMGPDTVVITSSDLPSPQGSNYLIVLGSQRRRNPAGSVVMERIRMDIRKVDAVFVGTGDLFAAMLLAWTHKHPNNLKVACEKTVSTLHHVLQRTIQCAKAQAGEGVRPSPMQLELRMVQSKRDIEDPEIVVQATVL | soluble
3 | TALIASGLAPQPFYFYGFLPRQNKERTQAIEKLAAREETWILYESPHRLKETLKAIIKITGNDRKMVLCRELTKRFEEFLRGTVEDALNWATDEEVRGEFCIIIEGNANP | not soluble
4 | TAVEPLALIRADGPTLPARGMHKPALCIIAQGRKEVQLAEERYIYDPLHYLVVSVTLPLAGQVIDASPDAPYLCVRLDIDPAEITQLISDAGPMEVASRRGDRGLYVDRIDASLLDAVLRLIHLLDSPRDIPMLAPLILREIFYRLLRSGQGQRL | not soluble
5 | TDAFFFAGFLPNAAAARKTRLETLRGVPGTLVFYESPKRLAASLRDMAEVLGGERPAALCRELTKKFEETRRDTLAGLAEALAEAPVKGEVVLLVDRARSG | not soluble
6 | TDLDAVRIKVDTVNAKPGDTVRIPVRFSGIPSKGIANCDFVYSYDPNVLEIIEIEPGELIVDPNPTKSFDTAVYPDRKMIVFLFAEDSGTGAYAITEDGVFATIVAKVKSGAPNGLSVIKFVEVGGFANNDLVEQKTQFFDGGVNVG | soluble
7 | TDPDCDRVGIVVKDSSGEYVVLNGNQVGSLLVRYILESLVEENKLPKNNPTIIKTIVTSELGAKIAKAYNVDCLNTLTGFKFIGEKIKAFEESNDRSFIMGYEESYGYLIGTHARDKDGVVSSLMICEMAAYYSSKGMNLYEALIDTYNKFGY | not soluble
8 | TEEPDFTALCQKLKIPDHVRERAWLTWEKVSSVDGVLGGYIQKKKELWGICIFIAAVDLDEMSFTFTELQKNIEISVHKFFNLLKEIDTSTKVDNAMSRLLKKYDVLFALFSKLERTCELIYLTQPSSSISTEINSALVLKVSWITFLLAKGEVLQMEDDLVISFQLMLCVLDYFIKLSPPMLLKEPYKTAVIPINGSPRTPRRGQNRSARIAKQLENDTRIIEVLCKEHECNIDEVKNVYFKNFIPFMNSLGLVTSNGLPEVENLSKRYEEIYLKNKDLDARLFLDHDKTLQTDSIDSFETQR | soluble
9 | TGEKTILKLKRSCLKPELRRIKAIVGLGLSGFTMAITNCTVQIMCNATLQAYGGDLYVGVMTVVNSVREVASLPVSGITQSAQPVLGFNYGAGEYGRVKKA | not soluble
10 | TGFNYFQYNITNSLNASYGPSQEGNQTDFYAGAVQLQQTVVQLDVDRGLEVGLASPLNVAAGALFRADNYQLKAGEEASWAGFENPPWGINQNGGTPAPGAQVFPGFRPEQEVDETRTNIGTYVDLQADLIDPLQVNIAGRFENYSDFGSTVNGKVALRFEPVSQLAFRGTAQTGYRAPNQAQKFFSKVSTTFIDNQPVQTGIFRINSDVGNALGIPDLE | not soluble
11 | TGMSREEVESLIQEVLEVYPEKARKDRNKHLAVNDPAVTQSKKCIISNKKSQPGLMTIRGCAYAGSKGIVWGPIKDMIHISHGPVGCGQYSRAGRRNYYIGTTGVNAFVTMNFTSDFQEKDIVFGGDKKLAKLIDEVETLFPLNKGISVQSECPIGLIGDDIESVSKVKGAELSKTIVPVRCEGFRGVSQSLGHHIANDAVRDWVLGKRDEDTTFASTPYDVAIIGDYNIGGDAWSSRILLEEMGLRCVAQWSGDGSISEIELTPKVKLNLVHCYRSMNYISRHMEEKYGIPWMEYNFFGPTKTIESLRAIAAKFDESIQKKCEEVIAKYKPEWEAVVAKYRPRLEGKRVMLYIGGLRPRHVIGAYEDLGMEVVGTGYEFAHNDDYDRTMKEMGDSTLLYDDVTGYEFEEFVKRIKPDLIGSGIKEKFIFQKMGIPFREMHSWDYSGPYHGFDGFAIFARDMDMTLNNPCWKKLQAPWEASEGAEKVAASA | soluble
12 | THSQLDQLLTGLVDRVAEVDHAVVLSEDGLVVSKSTGFLRDDAERLAATASGLMSLSKGVSMDFRRGPVRQALIEMGKGYLILTAAGPGAHLVVLTRQGADVGVVAYQMNMLVKKIGEHLSAPPRG | soluble
13 | TLDYNIQQQAYNLLGDNKGSVVVLNPKTGEILAMVSKPSYDPNDDALKASWAALNSNPDRPLLNRAVSGLYPPGSTFKTVTAISALENISGIQNETFNDPGQLVFNSTESLRDFGGESFGDIGFKHAYVVSSNVVFGKIGLQLGNNNLRQTAESFYFNKNIPCDGIVIDKSKFPTLKSYEKGNMAQSAIGQASVLATPIQMALVASTVANDGVMMKPHVVNEILSPNGDKIKSIEPESIGNIVSKENAATMKDFMRNVVEDGTGVNAAVEGIQVAGKTGTADHKVNGKDATPHSWFIGFAPYDNPQVAIAVIVEDGGQGGKAAAGIASKVIQTALQK | not soluble
14 | TLTVQARQLLSGIVQQQNDLLRAIEAQQHLLQLTVWGIKQLQARSGGRGGWMEWDREINNYTSLIHSLIEESQNQQEKNEQELLEL | soluble
15 | TPDRHQFPGLANKTYFNFGGQGILPTVALEAITAMYGYLQENGPFSIAANQHIQQLIAQLRQALAETFNVDPNTITITDNVTTGCDIVLWGLDWHQGDEILLTDCEHPGIIAIVQAIAARFGITYRFFPVAATLNQGDAAAVLANHLGPKTRLVILSHLLWNTGQVLPLAEIMAVCRRHQGNYPVRVLVDGAQSAGSLPLDFSRLEVDYYAFTGHAWFAGPAGVGGLYIHGDCLGEINPTYVGWRSITYGAKGEPTGWAEGGKRFEVATSAYPQYAGLLAALQLHQRQGTAEERYQAICQRSEFLWRGLNQLPHVHCLATSAPQAGLVSFTVDSPLGHRAIVQKLEEQRIYLRTIADPDCIRACCHYITDEEEINHLLARLADFGP | soluble
16 | TPEHRAVAREVAAETFVLLKNENHLLPLEEKGKIALIGPMADARNNMCGMWSMTCTPSRHGTLLEGIRSAVGDKAEILYAKGSNVYYDAEMEKGAVGIRPLERGNDQQLLAEALRTAARADVIVAAVGECAEMSGESPSRTNLEIPDAQQDLLKALVKTGKPVVLLLFTGRPLILNWESEHIPSILNVWFGGSETGDAVADVLFGKAVPCGKLTTTFPRSVGQLPLFYNHLNTGRPDPDNRVFNRYASNYLDESNEPLYPFGYGLSYTDF | not soluble
17 | TPHLVNLNEDPLMSECLLYYIKDGITRVGQADAERRQDIVLSGAHIKEEHCIFRSERSNSGEVIVTLEPCERSETYVNGKRVSQPVQLRSGNRIIMGKNHVFRFNHPEQARAEREKT | soluble
18 | TQNPIANPLAAKKRRDHVLERLLEEHYINEEQYQNAVNQPITAKYHGTNIKVKAPYVAEMIRQSLYDNFGPEAYTKGY | not soluble
19 | TSRNYLLLTPGPLTTSRTVKEAMLFDSCTWDDDYNIGVVEQIRQQLTALATASEGYTSVLLQGSGSYAVEAVLGSALGPQDKVLIVSNGAYGARMVEMAGLMGIAHHAYDCGEVARPDVQAIDAILNADPTISHIAMVHSETTTGMLNPIDEVGALAHRYGKTYIVDAMSSFGGIPMDIAALHIDYLISSANKCIQGVPGFAFVIAREQKLAACKGHSRSLSLDLYAQWRCMEDNHGKWRFTSPTHTVLAFAQALKELAKEGGVAARHQRYQQNQRSLVAGMRALGFNTLLDDELHSPIITAFYSPEDPQYRFSEFYRRLKEQGFVIYPGKVSQSDCFRIGNIGEVYAADITALLTAIRTAMYWTK | soluble
20 | TTATRQEVLGLYRSIFRLARKWQATSGQMEDTIKEKQYILNEARTLFRKNKNLTDTDLIKQCIDECTARIEIGLHY | soluble
21 | TTCDELISLCDEHHMSVADVVWANETAMRSAVQVRSDLDTVWHVMRRCVQHGCNTNQTVLPGGLDVPRRAPKMYARLASNSDVLKRDGRRSDAVLESSDAAWVDLFALAVSEENAAGGRIVTAPTNGAAGVIPAVLHYYWHFVDHADEDGVVTFLLTAGAIGYLFKRNASISGAEVGCQGEVGTACSMAAAGLCAVMGGTPHQVENAAEIGIEHNLGLTCDPVGGLVQIPCIERNAMAANTAINAVRMAMLGDGTHIVSLDQAIKTMKDTGEDMMAKYKETSKGGLAVN | not soluble
22 | TTILVVRRNGQTVMGGDGQVTFGSTVLKGNARKVRKLGEGKVLAGFAGSVADAMTLFDRFEAKLREWGGNLTKAAVELAKDWRTDRVLRRLEALLLVADKENIFIISGNGEVIQPDDDAAAIGSGGPYALAAAKALLRNTDLSAREIVEKAMTIAGEICIYTNQNIVIEEV | soluble
23 | TTNWLNYRAGSVAYEQAAEPLELLTEARIHAQRARTDETLALVWRQSLENSNHTFSTTLKRVDKALSKPGLDPAEVAAARNAMNTWRASHEELTNFLNSGRYEEALKLTTEGPSAFTDLDAALDSLIDSTRVRLRTEIRGVDTTQVN | not soluble
24 | TTYKHSLQDLTAQRSLGAIPFAGRYRLIDFMLSNMVNADIRSVAIFPKYRYRSLMDHLGAGKEWDLHRKKDGLFFFPSPHLHHEYDEFGSFRQFSDHLDYFHRSTQQYAVISNSHTVCNIQFQYVLKRHQEVGCDVTEVFQDGQSLQIYIMSTTLLKDLIYGHSEKGYKTIQEAVEKESSALTICPYEYSGYAAVIDSVEKYYTHSMELIQPRFWQQVFLPQQPIYTKVKDEPPTKYGKHSTVKNSLVANGCVLEGEVENCILFRAVHVGKGTKLKNCIIMQKTQIGEDCLLEQVISDKDVKIGKATEAAGTAEQPLVLRKGLVQGE | not soluble
25 | TWTYILRQGDLPPGEMQRYEGGPEPVMVCNVDGEFFAVQDTCTHGDWALSDGYLDGDIVECTLHFGKFCVRTGKVKALPACKPIKVFPIKVEGDEVHVDLDNGELK | soluble
26 | VAADAYLVRRGQETKRGSGKGGASKGTPRGLSVIAGYPWFADWGRDAMIALSGLTLVTGRFEDARELLLTFLGQRRRGLIPNHFDESGQGAGYNTVARPLWLAVALERYARTTGDALFVRQALPMLRELLGSLVQGTDYGIGMDPADALLRAGEPGVQLTWMDVKIHDWVVTPRHGKPVEIQALWLAALGAELRLSQALGEPPRYAAVLERAHHSFKAQFWNHAADLTAAPTATLLGLGQLGSSLGGALSDALDGDFVLDDEPRRDTSSDALLTVGGRPGSGPVQSTTGASELGVGHRPGAAPAQPAVLADVIQPSGEQDLSVRPNAVIALALADTPVVDEQLDAVLAQTERELLTPVGLHTLSPHDPRYLGNYGGPQLLRDAAYHQGTVWPWPLASYVELLLSRGELNRARAALAGLTGHVWEAGIGHVSEVFSGDALTPGGCPFQAWSVAELLR | not soluble
